Tests used:
papain [1] = target: T1, papain (Carica papaya, UniProt P00784); assay: cysteine protease inhibitory activity, Z-Phe-Arg-MCA fluorescence method (Barrett et al.), papain; format: biochemical; parameters: purchased Sigma Co., Ltd
T1 sequence (P00784 134-345): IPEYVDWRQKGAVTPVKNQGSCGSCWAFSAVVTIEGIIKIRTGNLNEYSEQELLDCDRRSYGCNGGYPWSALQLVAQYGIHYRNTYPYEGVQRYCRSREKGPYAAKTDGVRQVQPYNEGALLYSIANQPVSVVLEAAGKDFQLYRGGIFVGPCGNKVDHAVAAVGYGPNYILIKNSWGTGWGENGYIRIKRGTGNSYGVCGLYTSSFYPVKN
Method: Casein, a partial peptide of casein, or hydrolysate of casein which can be used for the present invention has inhibitory activity against cysteine proteases such as cathepsin B, L and papain. The cysteine protease inhibitory activity can be determined in accordance with the methods of Barrett et al (Methods in Enzymology, Vol. 80, pp. 535-561, 1981). For example, Z-Phe-Arg-MCA (Benzyloxycarbonyl-L-Phenylalanyl-L-Arginine4-Methyl-Coumaryl-7-Amide: final concentration of […]: manufactured by Peptide Institute, Inc.) is added as a substrate into a solution in which casein, a partial peptide and/or a hydrolysate of casein is dissolved in 0.1 M acetic acid buffer (pH 5.5), and then a cysteine protease (papain in the present Examples: manufactured by Sigma Co., Ltd.) solution (final concentration: 15 units/ml) is added and the whole solution is mixed to allow reaction at 37° C. for 10 minutes. After that, fluorescence intensity (excitation wavelength: 370 nm, emission wavelength: 460 nm) of AMC (7-Amino-4-Methyl-Coumarin) released from the digested substrate is measured with a fluorescence spectrometer (manufactured by Hitachi, Ltd.).
(§1) The inhibitory activity was measured with reference to the method by Barrett et al. (“Methods in Enzymology,” Vol. 80, p 535-561, 1981) as described below. Namely, Z-Phe-Arg-MCA (final concentration of […]: manufactured by Peptide Institute, Inc.) was added as a substrate to a solution containing bovine β-casein peptide mixture dissolved in a 0.1 M acetic acid buffer solution pH 5.5. Then, a cysteine protease (papain in the present test: manufactured by Sigma Co., Ltd.) solution (final concentration: 15 units/ml) was added, the whole solution was mixed and the reaction was carried out at 37° C. for 10 minutes. Subsequently, fluorescence intensity (excitation wavelength: 370 nm, emission wavelength: 460 nm) of AMC released from the digested substrate was measured with a fluorescence spectrometer (manufactured by Hitachi, Ltd.).
Z-Phe-Arg-MCA (final concentration of […]: manufactured by Peptide Institute, Inc.) was added as a substrate into a solution in which a test sample was dissolved in a 0.1 M acetic acid buffer (pH 5.5). Then, a papain solution (final concentration of 15 units/ml) as a cysteine protease solution was added and mixed, and the reaction was performed at 37° C. for 10 minutes. Subsequently, fluorescence intensity (excitation wavelength: 370 nm, emission wavelength: 460 nm) of AMC released from the digested substrate was measured with a fluorescence spectrometer (manufactured by Hitachi, Ltd.).

papain [2] = target: papain (UniProt P00784); assay: cell-based or functional assay
cathepsin L = cathepsin L (Homo sapiens, UniProt P07711); assay: cysteine protease inhibitory activity, Z-Phe-Arg-MCA fluorescence method, cathepsin L; format: biochemical; conditions: concentration of 10^−4 M
Method: as §1
(§2) A spectrum of cysteine protease-inhibitory activity of a test sample was measured in the same way as that of measuring the cysteine protease-inhibitory activity described in the Test Example 3, using bovine β-casein as a test sample, and papain, cathepsin B and cathepsin L as cysteine proteases.

cathepsin B = cathepsin B (Homo sapiens, UniProt P07858); assay: cysteine protease inhibitory activity, Z-Phe-Arg-MCA fluorescence method, cathepsin B; format: biochemical; conditions: concentration of 10^−4 M
Method: as §1, §2

papain [3] = target: T1, papain; assay: reverse zymography using papain (SDS-polyacrylamide gel containing gelatin); conditions: 12.5% SDS-polyacrylamide gel with 0.1% gelatin; papain 37° C. 10 hours; FIG. 1 lane 6

cathepsin L, sequence (P07711 114-333, species assumed): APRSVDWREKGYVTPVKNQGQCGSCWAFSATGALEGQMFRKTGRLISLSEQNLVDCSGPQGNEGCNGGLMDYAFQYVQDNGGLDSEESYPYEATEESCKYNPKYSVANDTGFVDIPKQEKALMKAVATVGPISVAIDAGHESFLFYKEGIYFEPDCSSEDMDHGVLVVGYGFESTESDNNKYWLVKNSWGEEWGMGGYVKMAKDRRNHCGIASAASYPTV

Molecule: human β-casein peptide: synthesized peptide having amino acid numbers 133 to 151 of SEQ ID No. 1 (human β-casein) (LTDLENLHLPLPLLQPLMQ; sig_peptide (1)Oc(15) casein; listed as Homo Sapiens)
- inhibition of papain, in words (papain [1]; concentration of 10^−4 M): completely inhibits
- inhibition of protease activity of papain (papain [1]; concentration of 10^−5 M): 65%

Molecule: bovine α-casein
- concentration at which papain activity is almost inhibited (papain [2]): 100 µM

Molecule: bovine κ-casein (from UniProt P02668 22-190)
- concentration at which papain is completely inhibited (papain [2]): 10 µM

Molecule: bovine β-casein peptide: peptide from Leu of 142th residue to His of 160th residue of bovine β-casein (SEQ ID No. 2) (LTDVENLHLPLPLLQSWMH; sig_peptide (1)Oc(15) casein; listed as Bos taurus)
- cysteine protease inhibitory activity (papain), in words (papain [1]; papain 15 units/ml, pH 5.5, 37° C. 10 minutes, concentration not given): having inhibitory activity

Molecule: bovine κ-casein: bovine κ-casein used as a test sample
- inhibition of papain, in words (papain [1]; concentration of 10^−5 M): completely inhibit

B1: bovine β-casein: β-casein derived from bovine, amino acid sequence of SEQ ID No. 2 (Swiss-Prot P02666) (protein, listed as Bos taurus)
chain: MKVLILACLVALALARELEELNVPGEIVESLSSSEESITRINKKIEKFQSEEQQQTEDELQDKIHPFAQTQSLVYPFPGPIPNSLPQNIPPLTQTPVVVPPFLQPEVMGVSKVKEAMAPKHKEMPFPKYPVEPFTESQSLTLTDVENLHLPLPLLQSWMHQPHQPLPPTVMFPPQSVLSLSQSKVLPVPQKAVPYPQRDMPIQAFLLYQEPVLGPVRGPFPIIV
modifications: sig_peptide (1)Oc(15) casein
- inhibition of protease activity of cathepsin L, in words (cathepsin L): almost inhibits
- inhibition of protease activity of cathepsin B, in words (cathepsin B): almost inhibits
- band in reverse zymography using papain (papain [3]): positive band
- inhibition of papain, in words (papain [1]; concentration of 10^−5 M): completely inhibits
- inhibition of papain, in words (papain [1]; concentration of 10^−5 M, listed as β-casein): completely inhibit

B2: human β-casein: human β-casein purified by a conventional procedure, amino acid sequence of SEQ ID No. 1 (Swiss-Prot P05814) (protein, listed as Homo Sapiens)
chain: MKVLILACLVALALARETIESLSSSEESITEYKQKVEKVKHEDQQQGEDEHQDKIYPSFQPQPLIYPFVEPIPYGFLPQNILPLAQPAVVLPVPQPEIMEVPKAKDTVYTKGRVMPVLKSPTIPFFDPQIPKLTDLENLHLPLPLLQPLMQQVPQPIPQTLALPPQPLWSVPQPKVLPIPQQVVPYPQRAVPVQALLLNQELLLNPTHQIYPVTQPLAPVHNPISV
modifications: sig_peptide (1)Oc(15) casein
- inhibition of papain, in words (papain [1]; concentration of 10^−5 M): almost completely inhibits

From patent publication US20050148504A1, “Cysteine protease inhibitor” (priority 2002, published 2005)
